Source: article PMC5584245
Where two headings read alike, the source gives them in different places.

Assays:
[1] = biological target: hG7-BM1 (hVH-B1, hVL-B1) (human); experiment: SPR; Biacore X100; CD24-GST flowed over immobilized antibody; 1:1 binding model; procedure as in ref. 45
[2] = biological target: hG7-BM1 (hVH-B1, hVL-B1) (human); experiment: as above; remark: listed apart in the source

hG7-BM1 (hVH-B1, hVL-B1) (human), sequence (heavy, as listed by the source, chain 1 of 2): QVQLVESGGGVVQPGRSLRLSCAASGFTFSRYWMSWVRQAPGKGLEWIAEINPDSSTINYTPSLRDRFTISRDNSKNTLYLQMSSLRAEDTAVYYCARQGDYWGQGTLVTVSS
hG7-BM1 (hVH-B1, hVL-B1) (human), sequence (light, as listed by the source, chain 2 of 2): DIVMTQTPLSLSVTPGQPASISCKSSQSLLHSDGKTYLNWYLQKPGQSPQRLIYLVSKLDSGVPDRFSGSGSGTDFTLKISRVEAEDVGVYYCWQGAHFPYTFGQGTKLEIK

- Kd [1]: 1.64 nM
- koff [1]: 0.000764 s⁻¹
- kon [1]: 465000 M⁻¹ s⁻¹
- Kd [2]: 0.164 nM
Binder: SETTTGTSSNSSQSTSNSGLAPNPTNATTKAAG (natural protein) [CD24-GST]
